Test results from patent publication US20240409638A1 (AVACTA LIFE SCIENCES, published 2024).

Tests used:
[1] = molecular target: T1, human PD-L1-Fc (R&D Systems) (human, UniProt Q9NZQ7 19-239); assay: PD-L1/PD-1 competition ELISA (binding inhibition %): human PD-1-Fc coated, AFFIMER preincubated with huPD-L1-Fc at its EC80, bound PD-L1 detected; blocked ligand: human PD-1-Fc. The table column is headed 'EC50 (nM)'; the text calls the values IC50
T1 construct: Bought reagent; also called huPD-L1-Fc; huPD-L1; not shown: Fc part of the bought fusion
Experimental: Plates were washed two times with washing buffer (PBS, Tween 20 0.1%) with a plate washer and saturated with Casein 5% (Sigma) in PBS for 90 minutes at room temperature (25±1° C.). […] Plates were washed 3 times as described previously. […] Plates were washed 3 times as described previously and Streptavidin-HRP was added, and the plates were incubated for 30 minutes at room temperature (25±1° C.). Plates were washed a last time and the substrate (TMB; Pierce Thermo-Scientific) was added to the plate. After 10 minutes, the reaction was stopped using an acidic solution and the plates were read at absorbance 450-630 nm. The IC₅₀ was then calculated using the interpolated non-linear four-parameters standard curve.

[2] = molecular target: T1, human PD-L1-Fc (R&D Systems); assay: SPR (Biacore 8K): human PD-L1-Fc amine-coupled on a CM5 chip, AFFIMER as analyte, 1:1 Langmuir fit
[3] = molecular target: T2, human serum albumin (HSA) (human, UniProt P02768 25-609); assay: HSA binding ELISA: HSA coated, bound AFFIMER detected with biotinylated anti-cystatin A antibody and streptavidin-HRP
T2 construct: The assays used bought HSA (Sigma #A37812 in the SPR work); also called HuSA
Experimental: Plates were washed and AFFIMER® polypeptides were detected using streptavidin-HRP for 30 min. After the last washing step, the TMB substrate was added for the development of the experiment and plates were read at 450 nm. The EC₅₀ was then calculated using the interpolated non-linear four-parameters standard curve.

[4] = molecular target: T1, human PD-L1-Fc (R&D Systems); assay: human PD-L1-Fc binding ELISA: huPD-L1-Fc coated, anti-cystatin A detection
[5] = molecular target: T3, PD-L1 on cells (NCI-H441 cells; aAPC PD-L1/CHO-K1 cells, Promega) (human, UniProt Q9NZQ7 19-290); assay: cell-based or functional assay
[6] = molecular target: T1, human PD-L1-Fc (R&D Systems); assay: huPD-L1-Fc binding ELISA
[7] = molecular target: T2, human serum albumin (HSA); assay: SPR (Biacore): immobilized ligand HSA (Sigma # A3782), AFFIMER as analyte, pH 7.0 by the legend
Experimental: (§1) For the HSA binding kinetic analysis, HSA (Sigma #A37812) was immobilized on a CM5 chip surface using amine coupling in 10 mM sodium acetate (pH 5.0) (Cytvia). […] The chip surface was regenerated with 3 mM NaOH for 20 seconds at a flow rate of 20 μl/min. The kinetic data was blank subtracted and fit to a 1:1 Langmuir binding model (BIAcore evaluation software; Cytiva).

[8] = molecular target: T4, murine serum albumin (MSA) (murine, UniProt P07724 25-608); assay: SPR, Biacore, MSA amine-coupled on CM5; mammalian-produced format
T4 construct: Bought reagent

[9] = molecular target: T2, human serum albumin (HSA); assay: SPR, Biacore, HSA amine-coupled on CM5; mammalian-produced format
Experimental: as §1

[10] = molecular target: T4, murine serum albumin (MSA); assay: SPR (Biacore): immobilized ligand MSA (Sigma # A3559), AFFIMER as analyte, pH 7.0 by the legend
[11] = molecular target: T3, PD-L1 on cells (NCI-H441 cells; aAPC …); assay: cell-based or functional assay; remark: listed apart in the source
[12] = molecular target: T2, human serum albumin (HSA); assay: HSA binding ELISA: HSA coated, anti-cystatin A detection
[13] = molecular target: T1, human PD-L1-Fc (R&D Systems); assay: SPR (Biacore 8K): human PD-L1-Fc amine-coupled on a CM5 chip, AFFIMER as analyte
[14] = molecular target: T1, human PD-L1-Fc (R&D Systems); assay: SPR (Biacore) kinetics: human PD-L1-Fc immobilised on a CM5 chip, AFFIMER as analyte (column KD (pM), the same fit as the KD (M) column)
[15] = molecular target: T2, human serum albumin (HSA); assay: SPR (Biacore) kinetics: HSA immobilised on a CM5 chip, AFFIMER as analyte, pH 7.4
Experimental: as §1
(§2) Protein was produced from Escherichia coli and characterized as described in Example 1. […] Kinetic analysis was carried out as described in Example 2.

[16] = molecular target: T1, human PD-L1-Fc (R&D Systems); assay: SPR (Biacore) kinetics: human PD-L1-Fc immobilised on a CM5 chip, AFFIMER as analyte
[17] = molecular target: T2, human serum albumin (HSA); assay: SPR, Biacore, HSA on CM5, pH 7.4; ILF XT format
Experimental: as §1, §2

[18] = molecular target: T2, human serum albumin (HSA); assay: SPR, Biacore, HSA on CM5, pH 7.4; HSA-18 monomer
Experimental: as §1, §2

T1 sequence (Q9NZQ7 19-239 limits assumed): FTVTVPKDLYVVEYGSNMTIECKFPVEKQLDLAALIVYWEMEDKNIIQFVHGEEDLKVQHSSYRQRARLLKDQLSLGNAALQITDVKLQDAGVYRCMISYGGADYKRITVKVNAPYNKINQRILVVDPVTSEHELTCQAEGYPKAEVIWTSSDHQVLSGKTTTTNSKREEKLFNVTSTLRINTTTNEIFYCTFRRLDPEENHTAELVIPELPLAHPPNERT
T2 sequence (P02768 25-609): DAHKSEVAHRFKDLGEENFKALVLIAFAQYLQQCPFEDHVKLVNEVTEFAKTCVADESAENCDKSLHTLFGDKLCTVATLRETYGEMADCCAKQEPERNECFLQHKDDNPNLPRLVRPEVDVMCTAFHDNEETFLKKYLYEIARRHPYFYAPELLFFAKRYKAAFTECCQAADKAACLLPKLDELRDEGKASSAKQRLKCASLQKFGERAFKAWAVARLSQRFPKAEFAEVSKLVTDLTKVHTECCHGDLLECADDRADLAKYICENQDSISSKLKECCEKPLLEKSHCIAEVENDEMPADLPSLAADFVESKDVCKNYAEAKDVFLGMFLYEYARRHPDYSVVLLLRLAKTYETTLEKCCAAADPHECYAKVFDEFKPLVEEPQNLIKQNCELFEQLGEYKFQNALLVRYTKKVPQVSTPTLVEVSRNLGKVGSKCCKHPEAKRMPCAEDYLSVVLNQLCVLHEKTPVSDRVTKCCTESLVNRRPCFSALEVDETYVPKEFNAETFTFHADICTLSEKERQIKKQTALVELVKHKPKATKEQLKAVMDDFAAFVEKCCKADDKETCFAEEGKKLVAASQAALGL
T3 sequence (Q9NZQ7 19-290): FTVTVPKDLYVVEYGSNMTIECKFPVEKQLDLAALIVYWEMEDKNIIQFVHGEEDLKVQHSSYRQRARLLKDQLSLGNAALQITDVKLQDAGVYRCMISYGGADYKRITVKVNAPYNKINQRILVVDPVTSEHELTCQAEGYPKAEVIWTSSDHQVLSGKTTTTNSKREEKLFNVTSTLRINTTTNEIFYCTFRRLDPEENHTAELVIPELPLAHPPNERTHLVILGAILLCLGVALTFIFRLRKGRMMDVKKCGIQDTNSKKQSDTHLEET

B1: Clone 80 (monomeric anti-PD-L1 AFFIMER® polypeptide) (designed binder)
chain: MIPGGLSEAKPATPEIQEIVDKVKPQLEEKTGETYGKLEAVQYKTQVVRRKHFPQWPGTNYYIKVRAGDNKYMHLKVFKSLDLQPREVFQEDLVLTGYQVDKNKDDELTGF
notes: Engineered Stefin A variant; also called anti-PD-L1 type I AFFIMER® polypeptide
[1]
  IC50: 1.63 nM
[2]
  Kd: 0.449 nM
[3]
  binding result: no binding
[4]
  EC50: 0.21 nM
[5]
  half-maximal concentration of PD-1/PD-L1 blockade (% of inhibition, NFAT-luciferase reporter cells; IC50): 27.9 nM
[6]
  EC50: 0.2 nM

B2: Clone 80 XT38 (mammalian-produced anti-PD-L1 AFFIMER® ILF dimer XT) (designed binder)
chain: MIPGGLSEAKPATPEIQEIVDKVKPQLEEKTGETYGKLEAVQYKTQVVRRKHFPQWPGTNYYIKVRAGDNKYMHLKVFKSLDLQPREVFQEDLVLTGYQVDKNKDDELTGFAEAAAKEAAAKEAAAKEAAAKEAAAKEAAAKMIPGGLSEAKPATPEIQEIVDKVKPQLEEKTGETYGKLEAVQYKTQVVRRKHFPQWPGTNYYIKVRAGDNKYMHLKVFKSLDLQPREVFQEDLVLTGYQVDKNKDDELTGFAEAAAKEAAAKEAAAKEAAAKEAAAKEAAAKMIPRGLSEAKPATPEIQEIVDKVKPQLEEKTNETYGKLEAVQYKTQVLANFFQRRWPGSTNYYIKVRAGDNKYMHLKVFNGPWKFRNTDRGADRVLTGYQVDKNKDDELTGF
notes: Same trimeric ILF format as Clone 80 XT35, expressed in HEK (Expi293F) cells
[7]
  koff: 0.00641 s⁻¹
  kon: 412000 M⁻¹ s⁻¹
[8]
  Kd: 413 nM
[9]
  Kd: 15.5 nM
[4]
  EC50: 0.02 nM
[10]
  koff: 0.0741 s⁻¹
  kon: 179000 M⁻¹ s⁻¹
[11]
  IC50 of PD-1/PD-L1 blockade (% of inhibition, Promega NFAT-luciferase reporter cells): 57.9 nM
[12]
  EC50: 2.78 nM
[13]
  Kd: 0.0864 nM
  koff: 8.41e-05 s⁻¹
  kon: 974000 M⁻¹ s⁻¹

B3: Clone 80 XT62 (designed binder)
chain: MIPGGLSEAKPATPEIQEIVDKVKPQLEEKTGETYGKLEAVQYKTQVVRRKHFPQWPGTNYYIKVRAGDNKYMHLKVFKSLDLQPREVFQEDLVLTGYQVDKNKDDELTGFAEAAAKEAAAKEAAAKEAAAKEAAAKEAAAKMIPGGLSEAKPATPEIQEIVDKVKPQLEEKTGETYGKLEAVQYKTQVVRRKHFPQWPGTNYYIKVRAGDNKYMHLKVFKSLDLQPREVFQEDLVLTGYQVDKNKDDELTGFAEAAAKEAAAKEAAAKEAAAKEAAAKEAAAKMIPRGLSEAKPATPEIQEIVDKVKPQLEEKTNETYGKLEAVQYKTQVLADWWQAKWPHSTNYYIKVRAGDNKYMHLKVFNGPYKVHQSSGGADRVLTGYQVDKNKDDELTGF
notes: Clone 80 dimer with HSA-18 at the C-terminus; Made in E. coli; No tag is stated for this construct
[14]
  Kd: 0.11 nM
[15]
  Kd: 704 nM
  koff: 0.00828 s⁻¹
  kon: 11800 M⁻¹ s⁻¹
[16]
  Kd: 0.109 nM
  koff: 0.00015 s⁻¹
  kon: 1.37e+06 M⁻¹ s⁻¹
[17]
  Kd: 7.04 nM

B4: HSA-18 (anti-serum albumin AFFIMER® polypeptide, XT monomer) (designed binder)
chain: MIPRGLSEAKPATPEIQEIVDKVKPQLEEKTNETYGKLEAVQYKTQVLADWWQAKWPHSTNYYIKVRAGDNKYMHLKVFNGPYKVHQSSGGADRVLTGYQVDKNKDDELTGF
notes: also called HSA-18 monomer
[15]
  Kd: 109 nM
  koff: 0.0078 s⁻¹
  kon: 71400 M⁻¹ s⁻¹
[18]
  Kd: 1.09 nM
